Reference: the supplement of paper PMC10567573

B1: SNX8 (parent)
chain: LHQETQLIHVYLPLTSHILRAFVN
B2: WSB1 (parent)
chain: FSHDGLHVASLADDKMVRFWRIDE

Variants of: B1
Test: protein stability index of a GFP-peptide fusion (GPS, HEK-293T) (PSI 1-6); higher = more stable
Settings: c terminus: a fixed tail appended
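Note: lentivirally expressed fusions sorted by FACS into six bins by GFP to DsRed ratio, PSI derived from sequencing read proportions per bin multiplied by bin number.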

Row | Variant | protein stability index
1 | F22H | 1.96
2 | F22C | 3.79
3 | F22L | 2.39
4 | F22Y | 4.5
5 | F22D | 2.12
6 | F22G | 2.88
7 | F22V | 2.75
8 | F22N | 1.92
9 | F22Q | 2.57
10 | F22S | 2.14
11 | F22M | 1.52
12 | F22I | 1.79
13 | F22R | 2.4
14 | F22K | 2.21
15 | F22P | 3.46
16 | R20T | 1.72
17 | R20D | 1.93
18 | R20G | 3.27
19 | R20M | 3.04
20 | R20H | 2.95
21 | R20V | 1.72
22 | R20Q | 1.89
23 | R20C | 2.94

Row | Variant | protein stability index
24 | R20N | 3.03
25 | R20Y | 3.11
26 | R20L | 3.82
27 | R20P | 3
28 | R20I | 2.9
29 | V23H | 2.58
30 | V23A | 3.31
31 | V23F | 2.14
32 | V23T | 3.16
33 | V23I | 1.96
34 | V23Q | 2.27
35 | V23E | 2.79
36 | V23L | 2.22
37 | V23Y | 3.02
38 | V23W | 3.24
39 | V23D | 2.39
40 | V23S | 2
41 | V23P | 2.03
42 | V23M | 2.4
43 | A21N | 3.01
44 | A21T | 1.84
45 | A21F | 1.38
46 | A21Y | 2.35

Row | Variant | protein stability index
47 | A21Q | 2.01
48 | A21I | 3.77
49 | A21E | 2.48
50 | A21C | 2.73
51 | A21K | 2.03
52 | A21P | 2.84
53 | A21W | 2.18
54 | A21M | 3.49
55 | A21R | 2.63
56 | A21D | 2.8
57 | N24D | 2.94
58 | N24A | 2.76
59 | N24L | 2.37
60 | N24K | 2.06
61 | N24Y | 2.88
62 | N24Q | 2.93
63 | N24S | 2.59
64 | N24T | 2.16
65 | N24V | 3.76
66 | N24F | 3.69
67 | N24H | 5.51

Variants of: B2
Test: as above
Settings: c terminus: a fixed tail appended

Row | Variant | protein stability index
68 | H3P | 1.67
69 | H3M | 1.79
70 | H3N | 1.92
71 | H3L | 1.37
72 | H3Q | 2.03
73 | H3S | 3.07
74 | H3K | 2.08
75 | H3Y | 1.19
76 | H3A | 2.89
77 | H3W | 1.62
78 | H3G | 2.95
79 | H3V | 1.11
80 | H3C | 3.26
81 | H3E | 1.71
82 | H3T | 1.89
83 | H3D | 2.2
84 | V8A | 1.94
85 | V8C | 1.38
86 | L6P | 1.63
87 | L6H | 2.27
88 | L6F | 2.43
89 | L6R | 1.92
90 | L6D | 2.07
91 | L6N | 3.26
92 | L6K | 1.65

Row | Variant | protein stability index
93 | L6T | 1.67
94 | L6I | 2.15
95 | L6M | 2.41
96 | L6A | 1.98
97 | L6C | 1.55
98 | L6Q | 2.33
99 | G5N | 3.01
100 | G5T | 2.27
101 | G5V | 2.61
102 | G5I | 1.89
103 | G5E | 2.67
104 | G5R | 2.07
105 | G5K | 1.96
106 | G5M | 3.4
107 | G5L | 1.74
108 | G5Y | 1.27
109 | G5P | 1.81
110 | G5C | 1.34
111 | G5Q | 2.15
112 | G5A | 1.92
113 | G5D | 3.16
114 | D4T | 2.1
115 | D4H | 1.43
116 | D4C | 1.73
117 | D4N | 2

Row | Variant | protein stability index
118 | D4E | 1.94
119 | D4L | 1.53
120 | D4K | 1.8
121 | D4P | 2
122 | D4Y | 1.65
123 | H7E | 1.84
124 | H7V | 2.42
125 | H7P | 2.09
126 | H7C | 1.86
127 | H7K | 1.17
128 | H7N | 1.68
129 | H7M | 1.03
130 | H7D | 3.61
131 | H7R | 3.03
132 | H7Q | 1.08
133 | H7F | 2.87
134 | H7L | 1
135 | H7I | 2.17
136 | H7A | 1.58
137 | H7T | 1.65
138 | H7G | 1.4
139 | F1C | 2.99
140 | F1T | 3.73
141 | F1N | 3.25
142 | F1H | 3.01

Row | Variant | protein stability index
143 | F1I | 2.89
144 | F1W | 2.3
145 | F1E | 4.03
146 | F1G | 3.43
147 | F1M | 3.81
148 | F1P | 3.52
149 | F1K | 3.4
150 | F1L | 3.14
151 | F1A | 2.85
152 | F1D | 4.46
153 | F1Y | 2.49
154 | F1Q | 3.9
155 | F1S | 3.33
156 | S2L | 1.58
157 | S2V | 2.64
158 | S2E | 2.34
159 | S2P | 1.69
160 | S2G | 1.15
161 | S2N | 2.78
162 | S2F | 1.97
163 | S2R | 2.61
164 | S2I | 2.46
165 | S2Y | 1.83
166 | S2D | 3.79
167 | S2M | 3.12
